Experimental findings from US20210388110A1 (published 2021) are described below.

Changes are numbered by the printed parent chain.

Assay [1] deals with T1, soluble human CD3ε chain (human, UniProt P07766 23-126, limits assumed).
T1 construct: the text says soluble human CD3ε chain; also called human CD3 epsilon chain
As to the kind of experiment: SPR (Biacore). (In general: Surface plasmon resonance follows binding to a sensor surface in real time, without labels.)

Assay [2] has as its target T2, soluble human GPC3 (human, UniProt P51654 25-563, limits assumed).
T2 construct: soluble human GPC3 as analyte; also called glypican 3
As to the kind of experiment: SPR (Biacore), soluble human GPC3.

T2 sequence (P51654 other isoform, or with tags, fused parts or gaps limits assumed, form in doubt): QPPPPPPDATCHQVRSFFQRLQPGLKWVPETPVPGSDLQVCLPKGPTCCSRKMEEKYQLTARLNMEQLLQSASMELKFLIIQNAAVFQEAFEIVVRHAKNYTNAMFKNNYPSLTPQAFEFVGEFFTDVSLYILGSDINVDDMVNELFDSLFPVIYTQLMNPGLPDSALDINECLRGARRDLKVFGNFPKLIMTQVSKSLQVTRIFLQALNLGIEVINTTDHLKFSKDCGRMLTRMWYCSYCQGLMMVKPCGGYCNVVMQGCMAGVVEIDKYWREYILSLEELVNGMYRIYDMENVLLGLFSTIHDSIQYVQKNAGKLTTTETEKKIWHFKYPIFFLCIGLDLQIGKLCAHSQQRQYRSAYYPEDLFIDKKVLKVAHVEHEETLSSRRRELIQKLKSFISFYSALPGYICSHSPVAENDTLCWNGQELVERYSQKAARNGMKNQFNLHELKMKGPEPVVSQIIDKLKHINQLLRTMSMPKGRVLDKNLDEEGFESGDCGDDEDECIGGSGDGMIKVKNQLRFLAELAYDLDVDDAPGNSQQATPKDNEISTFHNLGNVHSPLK
T1 sequence (P07766 23-126 limits assumed): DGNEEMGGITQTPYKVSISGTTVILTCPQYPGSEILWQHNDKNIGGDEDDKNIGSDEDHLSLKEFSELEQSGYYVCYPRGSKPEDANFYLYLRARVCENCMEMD

B1: TR01H040-E22Hh/none-Hi-Kn010G3/L0000-k0 (antibody, human IgG1, kappa, L234A L235A, N297A)
heavy: QVQLVESGGGLVQPGRSLRLSCAASGFTFSNAWMHWVRQAPGKGLEWVAQIKDKSQNYATYYAESVKGRFTISRADSKNSIYLQMNSLKTEDTAVYYCRYVHYSASYGVDAWGQGTTVTVSSASTKGPSVFPLAPSSKSTSGGTAALGCLVKDYFPEPVTVSWNSGALTSGVHTFPAVLQSSGLYSLSSVVTVPSSSLGTQTYICNVNHKPSNTKVDKKVEPKSCDKTHTCPPCPAPEAAGGPSVFLFPPKPKDTLMISRTPEVTCVVVDVSHEDPEVKFNWYVDGVEVHNAKTKPREEQYASTYRVVSVLTVLHQDWLNGKEYKCKVSNKALPAPIEKTISKAKGQPREPQVYTLPPSRCELTKNQVSLSCAVKGFYPSDIAVEWESNGQPENNYKTTPPVLDSDGSFFLVSKLTVDKSRWQQGNVFSCSVMHEALHNHYTQKSLSLSPDYKDDDDK
chain: EPKSSDKTHTCPPCPAPELLGGPSVFLFPPKPKDTLMISRTPEVTCVVVDVSHEDPEVKFNWYVDGVEVHNAKTKPREEQYNSTYRVVSVLTVLHQDWLNGKEYKCKVSNKALPAPIEKTISKAKGQPREPQVCTLPPSRDELTKNQVSLWCLVKGFYPSDIAVEWESNGQPENNYKTTPPVLDSDGSFFLYSKLTVDKSRWQQGNVFSCSVMHEALHNRYTQKSLSLSP
light: DIVMTQSPLSLPVTPGEPASISCRSSQSLVHSNRNTYLHWYQQKPGQAPRLLIYKVSNRFSGVPDRFSGSGSGTDFTLKISRVEAEDVGVYYCGQGTQVPYTFGQGTKLEIKRTVAAPSVFIFPPSDEQLKSGTASVVCLLNNFYPREAKVQWKVDNALQSGNSQESVTEQDSKDSTYSLSSTLTLSKADYEKHKVYACEVTHQGLSSPVTKSFNRGEC
notes: single-arm
B1 displayed a Kd in assay [1] of 36 nM.

B2: H0610-G1dh/none-Hi-Kn010G3/L0000vk1-k0 (antibody, human IgG1, kappa)
heavy: not shown
chain: B1 chain
light: DIQMTQSPSSLSASVGDRVTITCRSSQSLVHSNRNTYLHWYQQKPGKAPKLLIYKVSNRFSGVPSRFSGSGSGTDFTFTISSLQPEDIATYYCGQGTQVPYTFGQGTKVEIKRTVAAPSVFIFPPSDEQLKSGTASVVCLLNNFYPREAKVQWKVDNALQSGNSQESVTEQDSKDSTYSLSSTLTLSKADYEKHKVYACEVTHQGLSSPVTKSFNRGEC
notes: single-arm (one Fab)
In turn, B2 came in with a Kd in assay [2] of 2.16 nM.

B3: H0610-G1dh/none-Hi-Kn010G3/L0268-k0 (antibody, human IgG1, kappa)
heavy: not shown
chain: B1 chain
light: B1 light with L29P, L38I, H39Q, G94V
notes: single-arm (one Fab)
On to B3, for which, in assay [2], the Kd was 0.0169 nM.

B4: TR01H015-E22Hh/none-Hi-Kn010G3/L0000-k0 (antibody, human IgG1, kappa, L234A L235A, N297A)
heavy: B1 heavy with D53G, Q56N, A111I
chain: B1 chain
light: B1 light
notes: single-arm
Consider B4, for which, in assay [1], the affinity, expressed as Kd, was 61.3 nM.

B5: CE115HA252-E22Hh//-Hi-Kn010G3/L0000-k0 (antibody, human IgG1, kappa, L234A L235A, N297A)
heavy: B1 heavy with L11V, D53A, Q56N, A59K, T60K, A75D, I81L, S104Y, A105Y, S106Y
chain: B1 chain
light: B1 light
notes: single-arm
As for B5, the Kd in assay [1] came out at 9.48 nM.

B6: H0610-G1dh/none-Hi-Kn010G3/TR01L020-k0 (antibody, human IgG1, kappa)
heavy: not shown
chain: B1 chain
light: B1 light with R24Q, S25A, Q27E, L29P, L38I, H39Q, Q42L, A48S, R50Q, G94Y
notes: single-arm (one Fab)
On to B6, for which the Kd in assay [2] was 0.0224 nM.

B7: TR01H015-E22Hh/none-Hi-Kn010G3/TR01L001-k0 (antibody, human IgG1, kappa, L234A L235A, N297A)
heavy: B1 heavy with D53G, Q56N, A111I
chain: B1 chain
light: B1 light with R24Q, S25A, Q27E
notes: single-arm
In turn, B7 displayed a Kd in assay [1] of 65.6 nM.

B8: H0610-G1dh/none-Hi-Kn010G3/TR01L015-k0 (antibody, human IgG1, kappa)
heavy: not shown
chain: B1 chain
light: B1 light with L29P, Q42L, A48S, R50Q
notes: single-arm (one Fab)
B8 had a Kd in assay [2] of 2.16 nM.

B9: TR01H006-E22Hh/none-Hi-Kn010G3/L0000-k0 (antibody, human IgG1, kappa, L234A L235A, N297A)
heavy: B1 heavy with D53A, S104G, S106Y, A111I
chain: B1 chain
light: B1 light
notes: single-arm
The molecule B9 registered a Kd in assay [1] of 23 nM.

B10: TR01H013-E22Hh/none-Hi-Kn010G3/L0000-k0 (antibody, human IgG1, kappa, L234A L235A, N297A)
heavy: B1 heavy with D53G, S104G, S106Y, A111I
chain: B1 chain
light: B1 light
notes: single-arm
Turning to B10, binding in assay [1] was put at a Kd of 49.4 nM.

B11: TR01H015-E22Hh/none-Hi-Kn010G3/TR01L005-k0 (antibody, human IgG1, kappa, L234A L235A, N297A)
heavy: B1 heavy with D53G, Q56N, A111I
chain: B1 chain
light: B1 light with Q42L, A48S, R50Q, L109V, K112E
notes: single-arm
B11 gave a Kd in assay [1] of 65.3 nM.

B12: H0610-G1dh/none-Hi-Kn010G3/L0269-k0 (antibody, human IgG1, kappa)
heavy: not shown
chain: B1 chain
light: B1 light with L29P, L38I, H39Q
notes: single-arm (one Fab)
For the molecule B12, in assay [2], binding was put at a Kd of 0.459 nM.

B13: CE115HA192-E22Hh//-Hi-Kn010G3/L0000-k0 (antibody, human IgG1, kappa, L234A L235A, N297A)
heavy: B1 heavy with L11V, D53A, Q56N, A75D, I81L, S104Y, S106Y
chain: B1 chain
light: B1 light
notes: single-arm
Regarding B13, in assay [1], binding was characterised by a dissociation constant (Kd) of 50.5 nM.

B14: TR01H012-E22Hh/none-Hi-Kn010G3/L0000-k0 (antibody, human IgG1, kappa, L234A L235A, N297A)
heavy: B1 heavy with D53A, Q56N, S104Y, A105Y, A111I
chain: B1 chain
light: B1 light
notes: single-arm
In turn, B14 gave a Kd in assay [1] of 7.94 nM.

B15: CE115HA121-E22Hh//-Hi-Kn010G3/L0000-k0 (antibody, human IgG1, kappa, L234A L235A, N297A)
heavy: B1 heavy with L11V, Q50L, D53A, Q56N, A75D, I81L, S104G, S106Y
chain: B1 chain
light: B1 light
notes: single-arm
Consider B15, for which, in assay [1], the Kd was determined as 67.6 nM.

B16: H0610-G1dh/none-Hi-Kn010G3/TR01L016-k0 (antibody, human IgG1, kappa)
heavy: not shown
chain: B1 chain
light: B1 light with L29P, Q42L, A48S, R50Q, G94Y
notes: single-arm (one Fab)
In assay [2], B16 gave a Kd of 1.08 nM.

B17: H0610-G1dh/none-Hi-Kn010G3/TR01L008-k0 (antibody, human IgG1, kappa)
heavy: not shown
chain: B1 chain
light: B1 light with R24Q, S25A, Q27E, S61R
notes: single-arm (one Fab)
B17 showed a Kd in assay [2] of 3.48 nM.

B18: H0610-G1dh/none-Hi-Kn010G3/L0266-k0 (antibody, human IgG1, kappa)
heavy: not shown
chain: B1 chain
light: B1 light with S28P, L29P, G94V
notes: single-arm (one Fab)
In turn, B18 showed a Kd in assay [2] of 0.213 nM.

B19: H0610-G1dh/none-Hi-Kn010G3/TR01L009-k0 (antibody, human IgG1, kappa)
heavy: not shown
chain: B1 chain
light: B1 light with Q42L, A48S, R50Q, S61R
notes: single-arm (one Fab)
In the case of B19, the Kd in assay [2] is 3.81 nM.

B20: TR01H014-E22Hh/none-Hi-Kn010G3/L0000-k0 (antibody, human IgG1, kappa, L234A L235A, N297A)
heavy: B1 heavy with D53G, Q56N, E64P, S104G, S106Y, A111I
chain: B1 chain
light: B1 light
notes: single-arm
In the case of B20, the Kd in assay [1] was 38.7 nM.

B21: H0610-G1dh/none-Hi-Kn010G3/L0263-k0 (antibody, human IgG1, kappa)
heavy: not shown
chain: B1 chain
light: B1 light with L29P, L38I, G94A
notes: single-arm (one Fab)
As to B21, binding in assay [2] was characterised by a dissociation constant (Kd) of 0.564 nM.

B22: H0610-G1dh/none-Hi-Kn010G3/TR01L012-k0 (antibody, human IgG1, kappa)
heavy: not shown
chain: B1 chain
light: B1 light with Q42L, A48S, R50Q, S61R, L109V, K112E
notes: single-arm (one Fab)
For B22, in assay [2], the Kd stood at 4.25 nM.

B23: H0610-G1dh/none-Hi-Kn010G3/L0267-k0 (antibody, human IgG1, kappa)
heavy: not shown
chain: B1 chain
light: B1 light with S25P, L29P, G94V
notes: single-arm (one Fab)
In assay [2], B23 displayed a Kd of 0.179 nM.

B24: TR01H015-E22Hh/none-Hi-Kn010G3/TR01L003-k0 (antibody, human IgG1, kappa, L234A L235A, N297A)
heavy: B1 heavy with D53G, Q56N, A111I
chain: B1 chain
light: B1 light with L109V, K112E
notes: single-arm
In turn, B24 came in with a Kd in assay [1] of 63.4 nM.

B25: H0610-G1dh/none-Hi-Kn010G3/TR01L017-k0 (antibody, human IgG1, kappa)
heavy: not shown
chain: B1 chain
light: B1 light with L29P, L38I, H39Q, Q42L, A48S, R50Q, G94Y
notes: single-arm (one Fab)
In assay [2], B25 returned a Kd of 0.00827 nM.

B26: H0610-G1dh/none-Hi-Kn010G3/TR01L010-k0 (antibody, human IgG1, kappa)
heavy: not shown
chain: B1 chain
light: B1 light with S61R, L109V, K112E
notes: single-arm (one Fab)
As to B26, the Kd in assay [2] turned out to be 2.92 nM.

B27: CE115HA251-E22Hh//-Hi-Kn010G3/L0000-k0 (antibody, human IgG1, kappa, L234A L235A, N297A)
heavy: B1 heavy with L11V, D53A, Q56N, A75D, I81L, S104Y, A105Y, S106Y
chain: B1 chain
light: B1 light
notes: single-arm
Molecule B27 had a Kd in assay [1] of 22.3 nM.

B28: TR01H003-E22Hh//-Hi-Kn010G3/L0000-k0 (antibody, human IgG1, kappa, L234A L235A, N297A)
heavy: B1 heavy with L11V, D53A, Q56N, A75D, I81L, Y100R, S104G, S106Y
chain: B1 chain
light: B1 light
notes: single-arm
Molecule B28 yielded a Kd in assay [1] of 40.3 nM.

B29: H0610-G1dh/none-Hi-Kn010G3/L0264-k0 (antibody, human IgG1, kappa)
heavy: not shown
chain: B1 chain
light: B1 light with S25P, L29P, G94A
notes: single-arm (one Fab)
Take B29: the Kd in assay [2] was determined as 0.219 nM.

B30: H0610-G1dh/none-Hi-Kn010G3/TR01L019-k0 (antibody, human IgG1, kappa)
heavy: not shown
chain: B1 chain
light: B1 light with R24Q, S25A, Q27E, L29P, Q42L, A48S, R50Q, G94Y
notes: single-arm (one Fab)
In assay [2], B30 gave a Kd of 1.15 nM.

B31: H0610-G1dh/none-Hi-Kn010G3/L0265-k0 (antibody, human IgG1, kappa)
heavy: not shown
chain: B1 chain
light: B1 light with L29P, L38I, H39Q, G94A
notes: single-arm (one Fab)
In turn, B31 came in with a Kd in assay [2] of 0.0087 nM.

B32: H0610-G1dh/none-Hi-Kn010G3/TR01L018-k0 (antibody, human IgG1, kappa)
heavy: not shown
chain: B1 chain
light: B1 light with R24Q, S25A, Q27E, L29P, Q42L, A48S, R50Q
notes: single-arm (one Fab)
In assay [2], B32 came in with a Kd of 2.17 nM.

B33: TR01H007-E22Hh/none-Hi-Kn010G3/L0000-k0 (antibody, human IgG1, kappa, L234A L235A, N297A)
heavy: B1 heavy with D53S, Q56N, S104G, S106Y, A111I
chain: B1 chain
light: B1 light
notes: single-arm
In turn, B33 returned a Kd in assay [1] of 21.7 nM.

B34: H0610-G1dh/none-Hi-Kn010G3/TR01L011-k0 (antibody, human IgG1, kappa)
heavy: not shown
chain: B1 chain
light: B1 light with R24Q, S25A, Q27E, S61R, L109V, K112E
notes: single-arm (one Fab)
With B34, in assay [2], binding was put at a Kd of 4.02 nM.

Broadly, the Kd is the constant that tells how readily two partners part at equilibrium. A low value points to higher affinity.
